Experimental data: patent publication US10344330B2, “Glatiramer acetate response biomarker mRNA potency assay” (Mylan Inc., priority 2013, dated 2019)

Columns and labels:
[1] = system: IL-1b secreted by LN cells; assay: IL-1b secretion by GA-stimulated LN cells, MSD 9-plex ELISA (Example II); assay type: cell-based, mouse; conditions: 21 hr
Experimental: (§1) Animals at 8 weeks of age were immunized by injection into four footpads using a 1 mL syringe with a 27-G, 1⁄2-inch needle. […] Ten days post-immunization, immunized animals were sacrificed via cervical dislocation. […] The LN cells were isolated by pressing the LN with the plunger end of a sterile syringe. […] Trypan blue exclusion method was used to determine the cell density of viable cells in the suspension. […] Cat. […] LN cells were plated into a 24-well tissue culture plate for drug stimulation. […] Cell debris was removed by centrifugation at ca. 200×g for 10 minutes at 4° C. Cytokines secreted by treated cells were determined on the day of collection by ELISA using mouse TH 1/TH 2 9-Plex Tissue Culture Kit (Meso Scale Discovery; Cat No. […]-2, Lot #: K0032839) which detects Th1 cytokines (IFN-γ, IL-2, IL-12, IL-1β, TNF-α, CXCL1) and Th2 cytokines (IL-4, IL-5 and IL-10). For IFN-γ, culture media also were assayed at 45 hours using mouse IFN-γ Tissue Culture Kit (Meso Scale Discovery; Cat No. […] For the positive control, 0.5 mL of LN cells (5×10^6 cells/well) were treated with 0.5 mL of ConA (5 μg/mL). For the negative control, 0.5 mL of LN cells (5×10^6 cells/well) were treated with 0.5 mL of MBP (20 μg/mL). The LN cells with mock stimulation (enriched DCCM1 medium) were used to monitor the background level of a cytokine. For the cytokine assays, calibration standards or samples were incubated in the MULTI-SPOT or the SINGLE-SPOT plate and each cytokine bound to its corresponding capture antibody. All test samples were run in duplicate. The amount of each cytokine on its distinct spot was quantified using a cytokine-specific detection antibody labeled with MSD SULFO-TAGTM reagent. Electrochemiluminescent signals from immobilized SULFO-TAGTM-labeled complexes on each spot from each well were captured by the MSD SECTOR Imager 6000, which produces a signal directly proportional to the amount of captured cytokine in a test sample. The levels of cytokines in test samples were derived by interpolation from calibration curves with calibration standards of known concentrations using reagents provided with the MSD kits. Kits were used according to the manufacturer's protocols. […] Data are expressed as a response ratio of cytokine concentration in treated cell medium to control DCCM1 medium.

[2] = system: mouse TNF-α mRNA in primary LN cells; assay: Validation: mouse TNF-α mRNA by real-time PCR in LN cells of GA-immunized SJL/J mice (Example IV); assay type: cell-based; conditions: for TNF-α mRNA Fold Change: normalized to GAPDH
Experimental: (§2) Three experiments were conducted using one batch of GA (Mylan GMA). The primary LN cells were stimulated by incubation with 6 concentrations (0.3 to 20 μg/mL) of the GA for 6 hours at 37° C. Total RNA was isolated from LN cells stimulated with GA or controls. cDNA was synthesized from the RNA and the mRNA levels of seven mouse cytokines, IL-2, IL-4, IL-5, IL-10, IL-13, interferon (IFN)-γ and tumor necrosis factor (TNF)-α, were quantitatively measured by a real-time PCR method.
(§3) Female SJL/J mice at 8-9 weeks of age were immunized by injection into four footpads using a 1 mL syringe with a 27-G, ½-inch needle. Each mouse received a total injection volume of 0.1 mL of GMA emulsified in CFA (about 10 μL into each of the front footpads and 40 μL into each of the hind footpads). Animals were immunized on Day 0. After injection, animals were placed back in their cages and housed ≤6 animals per cage.
(§4) Immunized animals were sacrificed by cervical dislocation on Day 10 following immunization. […] After centrifugation at about 200×g for 10 minutes at 4° C., the cell pellet was re-suspended in 40 mL of DCCM-1 medium for cell counting. A Trypan blue exclusion method was used to determine the cell density of viable cells in the suspension. After cell counting, the LN cells were suspended in enriched DCCM-1 medium at density of 7.5×10^6 cells/mL. LN cells (0.12 mL) were plated into each well of 96-well tissue culture plates.
(§5) Dilutions of GA (Mylan GMA) were prepared using enriched DCCM-1 medium as the diluent. GA dilutions (0.12 mL) were added in the assigned wells of 96-well tissue culture plates. The same volume of LN cells (0.12 mL) isolated from immunized animals was added to the assigned wells. A positive control and a negative control were always performed in the same assay by treating LN cells with 2.5 μg/mL ConA and 10 μg/mL MBP, respectively. The LN cells with mock stimulation protocols (enriched DCCM-1 medium) were used to monitor the background mRNA level of a cytokine. The plates were incubated at 37° C. in a humidified 5% CO2 incubator for 6 hr.
(§6) At the end of incubation time, culture medium from stimulated cells was removed by aspiration and the cells were lysed using Qiagen or Promega lysis buffer. The lysate was transferred to an RNeasy Mini column (Qiagen) or wells of the SV 96 Binding Plate (Promega) for RNA isolation and cDNA synthesis. All tested samples were run in triplicate.
(§7) The SV 96 Total RNA Isolation System (Promega; Cat. No. Z3505) was used for total RNA isolation. Assay procedures were carried out according to each manufacturer's protocol. RNA samples were stored at −70° C. until use. […] The assay procedure was carried out according to the manufacturer's protocol.
(§8) The plate was centrifuged at 2000 rpm for 2 minutes at 4° C. to spin down the contents and eliminate air bubbles. Samples were prepared and run in a 96-well plate using a Life Technologies Real-Time PCR system (previously Applied Biosystems; Model No. 7500) according to the manufacturer's recommendation. The mix for the reference gene was prepared in the same way using the reference gene primer.
(§9) A relative quantitation method was used to analyze changes in mIL-2, mIL-4, mIL-5, mIL-10, mIL-13, mIFN-γ and TNF-α expression in GA treated samples relative to the untreated control (Enriched DCCM-1 treated) samples using the following program:
(§10) Levels of mouse cytokine amplicons were normalized to an internal probe level (GAPDH) from the same samples. The following equations were used to calculate the relative increase in response to GA stimulation compared to the control sample (Enriched DCCM1 sample): […]

[3] = system: KC (CXCL1) secreted by LN cells; assay: KC (CXCL1) secretion by GA-stimulated LN cells, MSD 9-plex ELISA (Example II); assay type: cell-based, mouse; conditions: 21 hr
Experimental: as §1

[4] = system: mouse IL-10 mRNA in primary LN cells; assay: Validation: mouse IL-10 mRNA by real-time PCR in LN cells of GA-immunized SJL/J mice (Example IV); assay type: cell-based; conditions: for IL-10 mRNA Fold Change: normalized to GAPDH
Experimental: as §2, §3, §4, §5, §6, §7, §8, §9, §10

[5] = BALB/cByJ, immunized Mannitol Intraplantar
[6] = C57BL10J, immunized GA Intraplantar
[7] = C57BL10J, immunized Mannitol Intraplantar
[8] = CD-1, immunized GA Intraplantar
[9] = CD-1, immunized Mannitol Intraplantar
[10] = BALB/cByJ, immunized GA Intraplantar
[11] = SJL/J, MBP 10 μg/mL, all PCR runs

Concanavalin A [ConA, reference compound]
IL-1b secretion response ratio (treated cell medium to control DCCM1 medium) [1, 5]: 7.83 | IL-1b secretion response ratio (treated cell medium to control DCCM1 medium) [1, 6]: 2.21 | IL-1b secretion response ratio (treated cell medium to control DCCM1 medium) [1, 7]: 1.40 | IL-1b secretion response ratio (treated cell medium to control DCCM1 medium) [1, 8]: 8.50 | IL-1b secretion response ratio (treated cell medium to control DCCM1 medium) [1, 9]: 3.37 | TNF-α mRNA Fold Change ([2]; Experiment 1, 2.5 μg/mL): 1.9 fold | TNF-α mRNA Fold Change ([2]; Experiment 2, 2.5 μg/mL): 0.8 fold | TNF-α mRNA Fold Change ([2]; Experiment 3, 2.5 μg/mL): 1.6 fold | KC secretion response ratio (treated cell medium to control DCCM1 medium) [3, 10]: 1.52 | KC secretion response ratio (treated cell medium to control DCCM1 medium) [3, 5]: 1.00 | KC secretion response ratio (treated cell medium to control DCCM1 medium) [3, 7]: 1.34 | KC secretion response ratio (treated cell medium to control DCCM1 medium) [3, 8]: 1.56 | KC secretion response ratio (treated cell medium to control DCCM1 medium) [3, 9]: 2.55 | IL-10 mRNA Fold Change ([4]; Experiment 1, 2.5 μg/mL): 1.2 fold | IL-10 mRNA Fold Change ([4]; Experiment 2, 2.5 μg/mL): 0.5 fold | IL-10 mRNA Fold Change ([4]; Experiment 3, 2.5 μg/mL): 1.6 fold

B1: MBP: myelin basic protein, a negative control (protein, UniProt P02686 1-304, looked up)
Myelin basic protein: MGNHAGKRELNAEKASTNSETNRGESEKKRNLGELSRTTSEDNEVFGEADANQNNGTSSQDTAVTDSKRTADPKNAWQDAHPADPGSRPHLIRLFSRDAPGREDNTFKDRPSESDELQTIQEDSAATSESLDVMASQKRPSQRHGSKYLATASTMDHARHGFLPRHRDTGILDSIGRFFGGDRGAPKRGSGKDSHHPARTAHYGSLPQKSHGRTQDENPVVHFFKNIVTPRTPPPSQGKGRGLSLSRFSWGAEGQRPGFGYGGRASDYKSAHKGFKGVDAQGTLSKIFKLGGRDSRSGSPMARR
IL-1b secretion response ratio (treated cell medium to control DCCM1 medium) [1, 5]: 0.87 | IL-1b secretion response ratio (treated cell medium to control DCCM1 medium) [1, 6]: 0.99 | IL-1b secretion response ratio (treated cell medium to control DCCM1 medium) [1, 7]: 0.92 | IL-1b secretion response ratio (treated cell medium to control DCCM1 medium) [1, 8]: 1.37 | IL-1b secretion response ratio (treated cell medium to control DCCM1 medium) [1, 9]: 1.20 | TNF-α mRNA Fold Change ([2]; Experiment 1, 10 μg/mL): 1.0 fold | TNF-α mRNA Fold Change ([2]; Experiment 2, 10 μg/mL): 1.1 fold | TNF-α mRNA Fold Change ([2]; Experiment 3, 10 μg/mL): 1.1 fold | TNF-α mRNA expression level in response to MBP treatment [2, 11]: ≤ 2 fold | KC secretion response ratio (treated cell medium to control DCCM1 medium) [3, 10]: 1.04 | KC secretion response ratio (treated cell medium to control DCCM1 medium) [3, 5]: 0.96 | KC secretion response ratio (treated cell medium to control DCCM1 medium) [3, 7]: 1.12 | KC secretion response ratio (treated cell medium to control DCCM1 medium) [3, 8]: 1.05 | KC secretion response ratio (treated cell medium to control DCCM1 medium) [3, 9]: 1.09 | IL-10 mRNA Fold Change ([4]; Experiment 1, 10 μg/mL): 1.1 fold | IL-10 mRNA Fold Change ([4]; Experiment 2, 10 μg/mL): 0.7 fold | IL-10 mRNA Fold Change ([4]; Experiment 3, 10 μg/mL): 1.0 fold | IL-10 mRNA expression level in response to MBP treatment [4, 11]: ≤ 2 fold
